Data: patent US20160304573A1, “FIBROMODULIN PEPTIDE” (The Regents of the University of California, priority 2010, published 2016)

How the values were obtained:
[1] = biological target: T1, TGF-β1 (Homo sapiens, UniProt P01137); assay: ELISA analysis of binding with TGF-β1; details: BSA as negative control; FIG. 3
Excerpt: Bovine serum albumin (BSA) was used as negative control.
SUMO-CAT from the recombinant bacteria harboring control plasmid pET_SUMO/CAT was used as negative control. To the knowledge of inventors, the TGF-binding sites within FMOD have not been reported.

[2] = biological target: T1, TGF-β1; assay: TGF-β1 binding to biotinylated FMOD/FMOD peptides on avidin resin; non-bound TGF-β read by Mv1Lu growth inhibition (MTT); details: ratios 1:1, 10:1, 100:1, 1000:1 to TGF-β; overnight 4° C.; FIG. 13
Procedure: (§1) FMOD (whole protein) (SEQ ID NO:1), FMOD peptides and control protein BSA were biotinylated. While, the biotinylated proteins and peptides were bound to commercial available Piece Monomeric Avidin UltraLink Resin (Piece). The amounts of each test peptides/proteins are 1:1, 10:1, 100:1 and 1000:1 to TGF-βs, respectively. After washing out the non-bound residues, appropriate amount TGF-βs (based on the primary test assay) were added to the resin at 4° C. After overnight binding, non-bound TGF-βs were collected, followed by filter sterilization. Then, the TGF-βs residue were diluted 100 times in DEME-0.5% FBS to ensure the concentration was located in the linear region of TGF-βs on Mv1Lu proliferate inhibition.
(§2) Diluted TGF-βs was added to overnight serum-starved Mv1Lu, and fresh TGF-βs media were added for another 24 hour before MTT assay. Samples with no TGF-βs added were employed as controls.

[3] = biological target: T2, TGF-β2 (Homo sapiens, UniProt P61812); assay: TGF-β2 binding to biotinylated FMOD/FMOD peptides on avidin resin; non-bound TGF-β read by Mv1Lu growth inhibition (MTT); details: ratios 1:1, 10:1, 100:1, 1000:1 to TGF-β; FIG. 14
T2 sequence (P61812 303-414 limits assumed): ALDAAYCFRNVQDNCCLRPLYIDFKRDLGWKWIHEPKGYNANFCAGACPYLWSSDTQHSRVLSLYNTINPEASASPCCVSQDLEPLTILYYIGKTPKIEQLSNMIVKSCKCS
Procedure: as §1, §2

[4] = biological target: T3, TGF-β3 (Homo sapiens, UniProt P10600); assay: TGF-β3 binding to biotinylated FMOD/FMOD peptides on avidin resin; non-bound TGF-β read by Mv1Lu growth inhibition (MTT)
T3 sequence (P10600 301-412 limits assumed): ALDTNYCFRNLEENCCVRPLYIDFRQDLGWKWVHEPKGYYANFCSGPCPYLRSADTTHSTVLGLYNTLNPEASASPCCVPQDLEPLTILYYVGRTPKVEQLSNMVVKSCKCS
Procedure: as §1, §2

[5] = tested on: Rat-2 (rat fibroblast cell line) cells; assay: Rat-2 cell proliferation, Click-iT Microplate Assay; type: cell-based; details: FMOD combined with 100 pM TGF-β1, 48 hours; FIG. 16
Procedure: 2000 cell/well passage 18 Rat-2 (rat fibroblast cell line) cells were seeded in 96-well plates with 200 μl DMEM-10% FBS for 6 hours, followed by overnight serum starving with 200 μl DMEM-0.5% FBS. 200 μl treatment medium, DMEM-0.5% FBS harboring different concentration of FMOD (SEQ ID NO:1), FMOD-F07-C40 peptide with/without 100 pM TGF-βI (SEQ ID NO:64), was added to the well and refreshed on the second day. After 48 hours treatment, proliferation of Rat-2 cells was evaluated by Click-iT® Microplate Assay (Invitrogen).

[6] = tested on: connective tissue growth factor (CTGF) expression; assay: CTGF expression and cell aggregation in Rat-2 cells, confocal staining; type: cell-based; details: for CTGF expression: 48 h
Procedure: Results of exemplary tests on each of FMOD and FMOD-P, alone or in combination with TGF-β on CTGF expression are shown in FIGS. 28A-28D. In these tests, 4,000 cells/well passage 18 Rat-2 cells were seeded in 8-well chamber slices in DMEM medium with 10% FBS. After 6 h adhesion, fresh DMEM medium with 0.5% FBS was employed for overnight serum starvation and then treatment media added. Treatment media were changed after 24 h. Cells were fixed and staining at 48 h. Photos were captured at 630× magnifications using a confocal microscope. In these figures, the cells were stained for CTGF (connective tissue growth factor, a factor involved in cell proliferation, migration and matrix production) or DAPI (4′,6-diamidino-2-phenylindole a fluorescent stain that binds strongly to DNA-used for nuclear staining). Merged images showing both CTGF and DAPI staining are also shown.

[7] = tested on: Rat-2 cells; assay: H&E morphology of Rat-2 cells; type: cell-based
Procedure: Exemplary tests were performed to better delineate cell morphology.

[8] = tested on: Rat-2 fibroblasts; assay: Z-axes series sequential images, relative height of nodules; type: cell-based; details: FMOD and TGF-β1 treatment
Excerpt: But for the nodules formed with FMOD and TGF-β1 treatment (yellow arrows), the cells were stacked on top of one another to a height of about 48 μm.

[9] = tested on: α-smooth muscle actin (α-SMA) expression; assay: α-SMA expression staining; type: cell-based
Procedure: Exemplary tests on effects of FMOD and TGF-β or FMOD peptides and TGF-β on α-SMA expression were performed and shown in FIGS. 25A-25D. Expression levels of α-SMA, which is a marker for the transition of fibroblasts to myofibroblasts, were measured and presented in staining in these figures.

[10] = 100 pM TGF-β1 and 200 nM FMOD combined treatment
[11] = 100 pM TGF-β1+200 nM Fibromodulin, FIG. 25D

T1 sequence (P01137 279-390 limits assumed): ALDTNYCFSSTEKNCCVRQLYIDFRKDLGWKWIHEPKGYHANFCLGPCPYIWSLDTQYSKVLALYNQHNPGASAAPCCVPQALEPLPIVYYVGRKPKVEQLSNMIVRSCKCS

B1: FMOD: recombinant human fibromodulin whole protein (SEQ ID NO:1) produced in CHO-K1 (protein, listed as Homo sapiens)
chain: MQWTSLLLLAGLFSLSQAQYEDDPHWWFHYLRSQQSTYYDPYDPYPYETYEPYPYGVDEGPAYTYGSPSPPDPRDCPQECDCPPNFPTAMYCDNRNLKYLPFVPSRMKYVYFQNNQITSIQEGVFDNATGLLWIALHGNQITSDKVGRKVFSKLRHLERLYLDHNNLTRMPGPLPRSLRELHLDHNQISRVPNNALEGLENLTALYLQHNEIQEVGSSMRGLRSLILLDLSYNHLRKVPDGLPSALEQLYMEHNNVYTVPDSYFRGAPKLLYVRLSHNSLTNNGLASNTFNSSSLLELDLSYNQLQKIPPVNTNLENLYLQGNRINEFSISSFCTVVDVVNFSKLQVLRLDGNEIKRSAMPADAPLCLRLASLIEI
Q: For B1, which “binding with TGF-β1 in ELISA assay” value [1] is on record?
A: Its value is “able to bind with TGF-β1”.

Q: And the TGF-β1 binding [2]?
A: Its TGF-β1 binding is “TGF-β1 binding that also increased with higher FMOD protein ratios”.

Q: What about the TGF-β2 binding [3] of the same molecule?
A: The TGF-β2 binding was “TGF-β2 binding that also expectedly increased with higher FMOD protein ratios”.

Q: And the “rank order of binding to TGF-β isoforms” value ([4]; comparison of FIGS. 13-15)?
A: The value was “TGF-β1>TGF-β2>TGF-β3”.

Q: And the TGF-β3 binding ([4]; ratios 1:1, 10:1, 100:1, 1000:1 to TGF-β, FIG. 15)?
A: Its TGF-β3 binding is “TGF-β3 binding that also expectedly increased with higher FMOD protein ratios up to 1:100”.

Q: And the fibroblast proliferation [5]?
A: Its fibroblast proliferation is “significantly increased fibroblast proliferation”.

Q: What about the cell aggregation ([6]; 100 pM TGF-β1+200 nM FMOD) of the same molecule?
A: Its cell aggregation is “significant cell aggregation”.

Q: What about the CTGF expression ([6]; 100 pM TGF-β1+200 nM FMOD, FIG. 21D) of the same molecule?
A: Its CTGF expression is “significantly higher CTGF expression”.

Q: And the cell morphology ([6]; 200 nM FMOD alone, compared to the control group)?
A: Its cell morphology is “more flat and spread out when compared to the control group”.

Q: What about the “CTGF expression (green fluorescence)” value ([6]; TGF-β1/FMOD combo-treatment relative to TGF-β1 mono-treatment, FIG. 24) of the same molecule?
A: The value was “significantly increases expression of CTGF”.

Q: What about the cell morphology ([6]; TGF-β1/FMOD combo-treatment, FIG. 24) of the same molecule?
A: The cell morphology was “much more densely packed, aggregated cells with a significant degree of nodule formation”.

Q: What about the CTGF expression ([6]; mono-treatment (200 nM FMOD or 100 pM TGF-β1), FIGS. 21B, 21C) of the same molecule?
A: The CTGF expression was “Minimal CTGF expression”.

Q: What about the “cell density (H&E)” value [7, 10] of the same molecule?
A: Its value is “significantly increased cell density”.

Q: What about the nodule size [7, 10] of the same molecule?
A: The nodule size was “increased nodule size”.

Q: And the nodule number ([7]; 100 pM TGF-β1 and 200 nM FMOD combined treatment, 8-well chamber slides)?
A: The nodule number was “about four”.

Q: What about the “cell morphology (H&E)” value ([7]; 200 nM FMOD alone, FIG. 22) of the same molecule?
A: Its value is “flat, spread-out Rat-2 cell morphology”.

Q: And the “cell aggregation/density (H&E)” value ([7]; mono-treatment (200 nM FMOD or 100 pM TGF-β1), relative to controls)?
A: Its value is “lower cell aggregation/density relative to controls”.

Q: And the “height of stacked cells in nodules” value [8]?
A: The value was “about 48 μm”.

Q: And the cell density/cell aggregation [9, 11]?
A: The cell density/cell aggregation was “increased cell density/cell aggregation”.

Q: And the α-SMA staining [9, 11]?
A: The α-SMA staining was “significantly increased α-SMA staining”.

Q: And the α-SMA staining ([9]; mono-treatment (200 nM FMOD or 100 pM TGF-β1), FIGS. 25B, 25C)?
A: Its α-SMA staining is “minimal α-SMA staining”.
